Patent US20040038249A1, “Inducible expression systems employing PPAR transcriptional activators” (priority 2002, published 2004)
Changes are numbered by the printed parent chain.

B1: GSG: human PPARγ2 with GSCKG substitutions in the P-box (SEQ ID NO: 7) (protein)
chain: MGETLGDSPIDPESDSFTDTLSANISQEMTMVDTEMPFWPTNFGISSVDLSVMEDHSHSFDIKPFTTVDFSSISTPHYEDIPFTRTDPVVADYKYDLKLQEYQSAIKVEPASPPYYSEKTQLYNKPHEEPSNSLMAIECRVCGDKASGFHYGVHACGSCKGFFRRTIRLKLIYDRCDLNCRIHKKSRNKCQYCRFQKCLAVGMSHNAIRFGRMPQAEKEKLLAEISSDIDQLNPESADLRALAKHLYDSYIKSFPLTKAKARAILTGKTTDKSPFVIYDMNSLMMGEDKIKFKHITPLQEQSKEVAIRIFQGCQFRSVEAVQEITEYAKSIPGFVNLDLNDQVTLLKYGVHEIIYTMLASLMNKDGVLISEGQGFMTREFLKSLRKPFGDFMEPKFEFAVKFNALELDDSDLAIFIAVIILSGDRPGLLNVKPIEDIQDNLLQALELQLKLNHPESSQLFAKLLQKMTDLRQIVTEHVQLLQVIKKTETDMSLHPLLQEIYKDLY
modifications: PPAR gamma 2 recombinant polypeptide comprising GSCKG in Zinc finger domain
B2: GSV: human PPARγ2 with GSCKV substitutions in the P-box of the Zinc finger domain (SEQ ID NO: 8) (protein)
chain: B1 chain with G161V
modifications: PPAR gamma 2 recombinant polypeptide comprising GSCKV in Zinc finger domain

Experiments:
[1] = form not soluble in water, doses between 5 and 50 mg/kg, for example 30 mg/kg; cited from earlier work
[2] = system: PPAR Response Elements (PPREs) of wt origin or mutated response sequence (CYP4A6m1); assay: Luciferase reporter cotransfection with PPAR polypeptide and response element plasmids; assay type: cell-based, murine; settings: for luciferase activity from response elements: C2C12 murine myoblasts, untreated or treated with BRL49653 PPARγ ligand, panel of wt and mutated response elements
From the text: FIG. 2: Comparison of PPAR polypeptides derived from human PPARγ2 receptor. C2C12 murine myoblasts were cotransfected with a mixture of 3 different plasmids: (i) a plasmid expressing the wt or a mutated hPPARγ2; (ii) a plasmid in which the luc+ gene expression is driven by an inducible target sequence made of multiple PPAR Response Elements (PPREs) of wt origin (CYP4A6, CYP4A1 and HMG) or mutated response sequence (CYP4A6m1=SEQ ID No.: 26, CYP4A6m2=control with sequence 5′ GAACT AGGGCA A AGAACA 3′ (SEQ ID No.: 41), CYP4 μm=SEQ ID No.: 22, and HMGm=SEQ ID No.: 34); and (iii) a plasmid expressing the Renilla luciferase gene as an internal control of transfection efficiency. Measurement of luciferase activity for untreated cells (white bars) or cells treated with the BRL49653 PPARγ ligand (grey bars) is shown for each response element (left Y-axis). The relative induction level (x fold induction) resulting from ligand treatment is also shown (dots and right Y-axis)). Nomenclature for the PPAR amino acid sequences used refers to the first, second, and fifth (bolded) amino acid in the P-box of the Zinc finger domain, where wild type is EGCKG (see box in FIG. 1, panel B).
FIG. 3: DNA-binding specificity of the GSV mutant. C2C12 murine myoblasts were cotransfected with a mixture of 3 different plasmids: (i) a plasmid expressing the wt EGG or the GSV mutated hPPARγ2; (ii) a plasmid in which the luc+ gene expression is driven by an inducible target sequence made of multiple wt PPREs (apoAII, BIF, PPREcon, CYP4A1, CYP4A6, FABP, HMG and MEP cloned in sense (-S) or anti-sense (-AS) orientation) or the mutated response element (noted as “m” sequences in FIG. 6, such as CYP4A6m1=SEQ ID No.: 26); and (iii) a plasmid expressing the Renilla luciferase gene as an internal control of transfection efficiency. Expression levels for untreated cells (white) or cells treated with the BRL49653 PPARγ ligand (grey) are shown in left Y-axis and the relative induction (x fold induction) due to ligand treatment is shown in right Y-axis (dots).
One skilled in the art is familiar with protocols for transfecting plasmids into cell or infecting cells with virus. As an example, murine myoblasts (C2C12; ATCC: CRL1772) and human HEK293 (ATCC: CRL1573) cells are seeded in 24-well plates (7.5×10^4 cells per well) and grown for 24 h in DMEM supplemented with 10% FCS. Cells are washed in DMEM without serum and transfected in triplicate by adding to the cells 0.5 ml of OptiMEM mixed with various quantities of reporter gene (AP or luc) encoding plasmid, supplemented to 500 ng with a carrier plasmid and LipofectAMINE (2 μl for C2C12, 3 μl for HEK293). Five hours later, the medium containing the DNA and the LipofectAMINE is replaced by 1 ml of DMEM supplemented with FCS (2% for C2C12, 10% for HEK293). […]

Row | Molecule | plasma concentration [1] | luciferase activity from response elements [2] | relative induction level resulting from ligand treatment ([2]; C2C12, BRL49653 treatment, CYP4A6m1 response element) | luciferase activity from response elements ([2]; listed as PPARγ2 (GSV))
1 | CN(CCOc1ccc(CC2SC(=O)NC2=O)cc1)c1ccccn1 (centres unmarked) [BRL49653, rosiglitazone] | about 15 μg/ml |  |  | 
2 | B1 |  | particularly strong and selective |  | 
3 | B2 |  | highly selective | highest induction levels | specific for the CYP4A6m1
